This is an account of results in the DeepSol protein solubility set.

The series is described as follows: soluble on expression in E. coli; label from the status in PepcDB or PDB records.
On to “GPGSMEGISEEQRQREEAEIRERDRKRQQEKEDYERRLAEAKAEEERKRREEEQLRLEEEKRKKRQEEEWKRLGSDAIQDLPPVPPPVAEEGALDMWYLDDETSQPPLSTASLKPGRKVGAPVITMKALRELGVVLFRVSMSDFSVVRQIIKEREYKHTDEVKISQTAKDDSFLERWYQEHYTEDEQFRVVMDGSFFLDIRSKQDEWIRVHVKAGDLVVLPAGIYHRATLDEDDYVALYRGFQDAPRFVPVKRSDSRADSNRVRLAYLMSLKKGDVATQNGFL”, for which the “soluble on expression in E. coli” value is on record as “soluble”.

As to “GPGSMELNQLELFVASTEHTRSDAWRYLRRLRVLDCKIEEGFDRLHEIAVQLSGTDSDGNLVDNQGNGTLQPDRKKRGRPPLCKNAFTATPYNVGQSPDSSVLLVDPAVANLHEEFRKHSRSVKRYALEREQIAEELVASGKELTEYLEARMREFRATFSISD”, the “soluble on expression in E. coli” value is recorded as “soluble”.

Regarding “GPGSMEREQLISSASQPRRTVQSPARWADSSLNEIPETPPESGGAGGKLCGRMSDCIRALQVSIQPIITVVSSGNGSRRNNGGGPTVTEPLVAGRMGEREASSPGRNSFNPPRTRSGRESQPQGTISAVSGPEQHSAEKAPASPITVAGEQRMSASRPASGLASVPATGAEGLAVDHLAPGSGGVPEASTNDIIRAVENDRGMLHTTEQLSAVLERLAEYLPIRVEVELDERGPGGDTSSNCFLHHLCLQILGPVRTTPHSALLGLLEDILLEDCVPTSLRISSIHFADVSFSVEPAPGMQSTEEANNVVSFDALPIFGFTTTRVASGDVAENEKVKKECTERFCAFAKNMLECYSHTTSVRLTRCCFTPSDLGRWLKLPLLQLRRLYFEKCPLTAAHLDALIRLARATSRQSGRGPAFQRLEELQLSGSLTEESVAAVLSYFSDELLDGEFALVSLRLPSLWLRVAQSHPILERQPSLIVTST”, the “soluble on expression in E. coli” value is on record as “not soluble”.

For the sequence “GPGSMFQRSLWRFFAHLVREVDTAGFAGDFRRLHHVGAASTQTQAREARHAACNVLFCGHHGTGKLNLLKAIGLQCEKKGQRVAFVSADNQRAARLDGYLINFFIGMRVSRDELPSQEQLEGTLERHVRLVESTFASSFPSLRNIDVLILDALELVQPTVLLSMDAVARRLRGQPRTPFGGLRVYAAADFWRLPVHPTSDTGGYLFQLEQWEVLFPLQTLLRKSHVQKEEELRRLTELAFYGALTLPQMKELEKLSMKEKPESRLFSWSSSTMEAEKSTATATEGEDEEGEIEEEDAMSIAQWTSFPGESAAADLPDGPEGALEATKDDEGAVNDPAAGQTSLSSSSSALALLNDDMASNSFVATRMMLRFPRQPAVKEMPLRYRQLKRTEMGNFLVNMLVHSSSATSVGLVDSLSVDVGSRVHLLLDGQEHYGVPGGAVGEVMQVGPHFLSIHFPREHRTVDIPRMRVVCYHPFYPEIRYELQQFPVFPRKRICPMNILTYPHAFFVNLNGRRMADTNDLGNLLAHQRSFADFTTRNTSDFANLDGMVHEPTRIYYHKISGKPISTAREQWCRNCKQFVPTDSFFEHWATCVHSVRWCIDCNQTVSLELLGPHREKHQVVLCLDCGRPVEWRHWEGHRLSCGPMMREVSTDNQFIPLRTRQLALEMGLDKRDLHTVASITKSSLPKPREGVL”, the “soluble on expression in E. coli” value is recorded as “not soluble”.

On to “GPGSMHKDGPRLWDDTLVEAERIATDSKARYLQLPTPDREAEMQRTRSQFFLLLRERVRNTYLRRISKFNPGEPLTWKYISGRKKASLPSPTSMLLGDGQHTYKTARRAANALNRIFLPFHPSHKAVRFSKGINRQSASLNINASFLFGQQNNNESAATSTSGSSLPSSSESQDKNEAATTSGLVAHLHSPLDAPFNRTELLAALRNTPYGKAPGPDEVYSEALRHISSKGLRFLLRCINHSWTTGTIPVEWRRATIVPLLKPGKSPELLESYRPISLTSIVSKVAEKMVLKRLLWVWTPHPHQYAYRSMRTTTMQLAHLIHDVEHNRNHYFQVSLPKKSGIGNQLHYRPHRTLLVLVDFSKAFDSIDHRVLSRLLANIPGVNCRRWLRNFLCGRYAKTRVGHRHSDRRPMLRGVPQGSVL”, for which the “soluble on expression in E. coli” value is recorded as “not soluble”.

Take “GPGSMIYVSERPMARTFVVFDKDGKPAERPDEYFPLVQMDKEEFVNRRRGHVADENLFAVDGDLILSHLIMGTQIMYDAEKNAVHSCDTGESEADGSIPISVRVLSDEFVVRHESQPDCLAWGSEAPSVYAG”: the “soluble on expression in E. coli” value is reported as “not soluble”.

Regarding “GPGSMKPSFYAVAVGKARGIYSTWAQCSEQVTGYPGCIYKGFRTLDEARSFLAAHPLPSTGSAVSLGGGSSSSVAAPYPSSSEHAALGSNYFKGRLKRETREDLLAGEESVAERQARRRRADHAQIAVAPPELSSMSASLSAATPSTTASKPLATTTTTSSPGAFEVVYVDGACSHNGTSQARAGYGGYYGSMSDPRNFSCPVPLTESQTNNRGEVRAVIHAIVQAFVDAGAPADALEATHLVDPSAWRLVDLTRPLPHLIIYTDSRYVIDGLTRYAKKWVQNGFVLSTNEPVQNQDLWRQLIRLRDRYNTLYARQQHDQQRACQWGDGHHSEADLAQLVRYTCQNARNDKSEGVELIHVRGHSKVHGNEMADSLAVMGSRLHRS”, the “soluble on expression in E. coli” value is recorded as “soluble”.

For the sequence “GPGSMKVSSFIVQLRPGFFRLMIHAKPGARSTALAAQPQALDEALEVRLAAPPVDGKANTELVEFMQTLLEQQLATLRITQKQHLRKSGCEDGEDEVYTYEHYAKKKKSKNNKRMNEDSKSGEAKVEYPDDKVRVSLVSGLTSRNKVLEVTFPGTEEDLLAVLKSADFS”, the “soluble on expression in E. coli” value is “soluble”.

For the sequence “GPGSMLANYDYESDLRGRTDELGRAQHVDAYDKHPTFLESPYAGQEDLLRDAPQSYMDGPPPGYGGHDAYEHVDMNGGGYDLPLQPQAQTQAVDTRRLSKDRLARGGLNIFSWNTDAPTLNHPREVRERDCAELQRLRPVDSAAQRDKEVREKFEGNTQSRFLCFSESDSPGKRRGVRVFNPNNKNGNLNSGTGHENPIQNRFNEEPQPFKIRQQQPRPLPQQNLPPAGRATHSNRQESGGIPGFAGMGEGRQHNARRGRGSYRG”, the “soluble on expression in E. coli” value is “not soluble”.

In the case of “GPGSMLATFFGRRAEPEFKVVCDPESIVFPVDFDAPDYPYEQAFEEADAYVRKLPTRGVVPVSDVLRLQFYSLFKQATEGDINEDVKQPSMLRDWEGYWKVYGWRKCRGMTRERARDLYTDLLDLQIRKHCSFVWGAPSGEDRWAAFYDGVRIIRNLPKGGYYLPDSLRAHFYALYKQALVGNLSDFQKTPAAFSEKYKWLRSRPSKAGFDQMRYDEWAALKGMSCEKAKRMYCKDIFKSAAMCGYVWAPPGTADHLKVIGDQTSAKTLKKRTDADEHAERIAGATHLTMEEAMDAVGVHLSMVERLTMHSFTKKEQTAAARTAEEAAGRKKREEKAEVKRRGVAGSHVDLNKGMAFARPKAEESTEATVTEKTEETEAKEDAERRLEAQGTDKDPQSVCNLCGSFAKDIASDAEAPEKVKESGAAAAAAKDCTAASTSPAPVPKLQASAKVAEASKILPSKSEPVLKKEPAVKGTSKGAKSSHQAKNGAKKGPAGKRTKAN”, the “soluble on expression in E. coli” value was “soluble”.

In the case of “GPGSMLGWSGTRFAAALHLRSVCSPRSAAAQGSHARAPRALSSSSSFVALFGSARGFSGTARRFSGTFHYRKVRLTPEDALDPLTKPTNIDKAALHVVSVPIGNLKDFSLRALDVLRGVDYIITTDRPATKTLLDLVNIPNQGRLIHYSRGNRSTSREKLVELLKGGRSMALVTTSGTPCIGDVGGELVQELQKSGIRVTAVPGASALMSALAISGLTTSAYESAKNDKRGADAAADGEAGLSPQTFEDGSFFFGNVLPKSHGARLRILRTIVAPATFPCVFYEVPYRLVMVLQDIASVLPHRFVYVTHELTKLNESLHADTAERLVGFYLRQEAQMLVKKGQLVLVIAGAGPKETAAWLEKEAAKRRRLRRTVSDLMKDAPPAASSHLESAPGTGGTTAAASSSRESSVTTAKEERRQRRKQRAELRRLRQRKKRERLIRAIESEQERLRVILSINRNDASRLM”, the “soluble on expression in E. coli” value is recorded as “not soluble”.

For “GPGSMLHFPITPPPIEIEYLDNDPLEFAVRTEARKWRFDDMGYMRELAFVRINNNPTVGDFRNMSPDERRNLFWGSDRQDFFRHLTCTLTGSPEHLYHRGW”, the “soluble on expression in E. coli” value is on record as “not soluble”.

Consider “GPGSMLRATILARGTLVKIGRGPNNVTESASNALLESLQDHGYCYIQHPFIQKTILDQLHRDCRIFFEQYVLHLHDAAAQGSLKRNNLHNYNCTQLSPYELESIKSPSGFRGYYRYVGASGIDDAIECFSVGRDDVADPAVLRRDYYKQAGWEESEYLSMISRRNPWDILLNHVNSIPASGSGIVPGMDRNDNFMSDFKDMMMAYYDLCYTVSMDVMRHISCGLGIRPSIPQGGSDPTMDFELEYFTSFHQKRDCDLQAKYYPQLGAGARLKNGVDIQNQRSAHNPDGVKVLRRKGAKTQPLVRTASTEDGDGEKDVTVRLDTHKDLSTITLLSQDSLGGLEVWDEEKASYMAVPVLEDALLVNAGLFLEKWTGGLIEATPHRVRNAKGGSSRCSIVFFALPDHDARIEPLLQQEDNPAVDAQDSFLAGDMMPAP”, for which the “soluble on expression in E. coli” value was “not soluble”.

Turning to “GPGSMLRLSLRRWCAAAASGSSTSTAHGSPPATTLPDFYGKSFSVSPRAWAQITRKNSEEGFTNDARYLRLAIDSGGCHGYVYKFSFEKNDEFSCEGDVAIAEVDAVSPSDEAFTGAQPSPRVVVDTLSASKLANATLDYHSELKGSAFVVVGNELVDESCACAMSFSMRKTTRQSVASSSSARGASSGDGGGHGGSGAAAPPAGSSLAANARPISRRSTTRATS”, the “soluble on expression in E. coli” value was “soluble”.

As to “GPGSMLRNTDVRLFSTFALNPETSVAPHGPPRGLVNRYVSMGLPPWAAWCNKVNRYSLYRMSGVTQRSFLPKPPQEMDVIWLNERVRERVRTSRQVQNVYRQLKYPYVKTGIHYSDVLDHWVQVPMVEAAMFEVEKDGGFDNFILKRSGPELRSTYGERIRRHILVRQKEIQKNFVLQKQAQMLVESMEKEILPMEDGKKVEEVLEKYGIDKEQLLRDIARAAVAKKQQLASAVPQPSHVEVSTN”, the “soluble on expression in E. coli” value was “not soluble”.

Turning to “GPGSMLRRLFTRMAPRAKNHEELMKMLREGSQVGKMAASEESGVTFRDIRTVPIGESNEAKRRRLLYQSTYRGMVEMDIILGAFARQNIETLSAPQLEEYDAVLRHFDNDLYKWLVMDVEAPAEVAQIPVFQSLHSFVRDEREKLLKCAS”, the “soluble on expression in E. coli” value is “soluble”.

As for “GPGSMMRTQQVDPDLTPVLAALASRINRDLPTVVELLCRRLVVQWNRAYLRKDWRFVENASRYLGWLFLLNVVEVDIIYQLLLKHLTSEKRREEDIDQAAKLFRETFKVMSLKERRSFHEQILTPFRDLLAMDDEELRLSTRSQAVLESCLKEVQEWERRKEREEAIPDYLVLFDLEMQQRHEMDLDEKYPTEDALDRYAFDAEYDTHEEQYEAVRKAILGEDWEVELLQQV”, the “soluble on expression in E. coli” value was “not soluble”.

Turning to “GPGSMMVLDIQLFRDETGANIIRESQRRRFADPDIVDAIIEADKKWRRTQFLTEASKKLINICSKAVGAKKKAKEADGDTSEIPPQVKEAYENGTLKGEQVEQLCVLQLKQLSKDLSDQVAGLAKEAQQLEEERDKLMLNVGNILHESVPIAQDEETGNTVVRTFGNTTKRAKLNHVSIMERLGMMDTSKAVTSMAGGRSYVLKGGLVQLQVALVSYSLDFLVKRGYTPFYPPFFLNRDVMGEVAQLSQFDEELYQVSGDGDKKYLIATSEMPIAAYHRGRWFTELKEPLKYAGMSTCFRKEAGAHGRDTLGIFRVHQFDKIEQFVVCSPRQEESWRHLEDMITTSEEFNKSLGLPYRVVNICSGALNNAAAKKYDLEAWFPASGAFRELVSCSNCTDYQSQSVNCRYGPNLRGTAAQNVKEYCHMLNGTLCAITRTMCCICENYQTEEGVVIPDVLRPYMMGIEMIRFENNAQAEGTTPDKGE”, the “soluble on expression in E. coli” value is given as “soluble”.

In the case of “GPGSMNRDPDNGLWYATLRGRTLLGEEVQLPESGIVGMTTVTTSKPSCSPFPTPASLSTFPPQIAEVGELEMVDEVFIEACAPRYVVWDHGRAPSPAASLLQWMMLAEVLHGPSKWAQGEGDTSL”, the “soluble on expression in E. coli” value is given as “not soluble”.
